From paper PMC10786891, “Massively parallel profiling of RNA-targeting CRISPR-Cas13d”
Positions count from the first letter of the chain named. Names may count otherwise.

T1: EsCas13d, nuclease-dead (Eubacterium siraeum, UniProt B0MS50, R295A;H300A;R849A;H854A)
T1 sequence: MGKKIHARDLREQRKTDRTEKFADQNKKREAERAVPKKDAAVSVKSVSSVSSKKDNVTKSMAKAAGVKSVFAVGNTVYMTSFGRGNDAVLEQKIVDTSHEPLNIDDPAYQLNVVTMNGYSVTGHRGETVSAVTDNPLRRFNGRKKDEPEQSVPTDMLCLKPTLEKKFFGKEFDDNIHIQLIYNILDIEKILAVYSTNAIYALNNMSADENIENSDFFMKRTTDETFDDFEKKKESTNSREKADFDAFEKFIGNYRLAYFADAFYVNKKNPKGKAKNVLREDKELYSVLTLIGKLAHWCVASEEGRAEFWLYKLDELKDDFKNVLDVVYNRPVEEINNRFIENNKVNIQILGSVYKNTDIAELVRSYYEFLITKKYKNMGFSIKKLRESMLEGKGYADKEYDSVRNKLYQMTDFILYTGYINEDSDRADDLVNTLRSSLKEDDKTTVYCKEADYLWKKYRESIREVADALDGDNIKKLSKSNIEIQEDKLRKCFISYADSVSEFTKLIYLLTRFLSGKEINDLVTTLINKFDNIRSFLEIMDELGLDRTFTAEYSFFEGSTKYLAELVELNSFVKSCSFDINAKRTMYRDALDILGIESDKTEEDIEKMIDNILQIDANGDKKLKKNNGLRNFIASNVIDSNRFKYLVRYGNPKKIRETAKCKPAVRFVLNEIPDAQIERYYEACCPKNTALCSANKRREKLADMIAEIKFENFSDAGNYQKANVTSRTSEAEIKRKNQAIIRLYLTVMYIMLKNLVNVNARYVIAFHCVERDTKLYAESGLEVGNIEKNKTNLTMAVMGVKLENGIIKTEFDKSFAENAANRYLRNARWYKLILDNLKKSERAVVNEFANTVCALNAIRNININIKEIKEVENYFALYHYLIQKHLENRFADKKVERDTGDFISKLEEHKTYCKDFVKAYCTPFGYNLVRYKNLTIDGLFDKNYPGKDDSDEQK

B1: target 1 insU 3' of 22,insC 3' of 15 (mixed)
RNA 1: CACCCGUGCAAAAAUGCAGGGGUCUAAAACUGAGCGGAUAACCUCUCUAUGG
RNA 2: GGGAAUGGAUCCACAUCUACGAAUUCGUACUCAUAGAGCAGGUUAUCCGCUCACCGAGAUCGGAAGAGCACACGU
B2: target 1 insA 3' of 11,insA 3' of 3 (mixed)
RNA 1: B1 RNA 1
RNA 2: GGGAAUGGAUCCACAUCUACGAAUUCGUACCAUAGAGAGGUAUAUCCGCUACACCGAGAUCGGAAGAGCACACGU
B3: target 1 insA 3' of 19,insA 3' of 8 (mixed)
RNA 1: B1 RNA 1
RNA 2: GGGAAUGGAUCCACAUCUACGAAUUCGUACCAUAAGAGAGGUUAUACCGCUCACCGAGAUCGGAAGAGCACACGU
B4: target 1 insA 3' of 11,insG 3' of 1 (mixed)
RNA 1: B1 RNA 1
RNA 2: B2 RNA 2 with A51C, C52A, A53G
B5: target 1 insU 3' of 5,insG 3' of 2 (mixed)
RNA 1: B1 RNA 1
RNA 2: B2 RNA 2 with A42U, U43A, A44U, U45C, C47G, G48U, A51C, C52G
B6: target 1 insA 3' of 6,insG 3' of 1 (mixed)
RNA 1: B1 RNA 1
RNA 2: B2 RNA 2 with A42U, U43A, A44U, U45C, C47A, A51C, C52A, A53G
B7: target 1 insG 3' of 11,insG 3' of 3 (mixed)
RNA 1: B1 RNA 1
RNA 2: B2 RNA 2 with A42G, A51G
B8: target 1 U8A,U11A (mixed)
RNA 1: B1 RNA 1
RNA 2: GGGAAUGGAUCCACAUCUACGAAUUCGUACCAUAGAGAGGAUAACCGCUCACCGAGAUCGGAAGAGCACACGU
B9: target 1 C6U,A14G (mixed)
RNA 1: B1 RNA 1
RNA 2: B8 RNA 2 with A38G, A41U, A44U, C46U
B10: target 1 insG 3' of 8,insU 3' of 4 (mixed)
RNA 1: B1 RNA 1
RNA 2: B2 RNA 2 with A42U, U43A, A44U, U45G, A51U
B11: target 1 insC 3' of 8,insG 3' of 6 (mixed)
RNA 1: B1 RNA 1
RNA 2: B2 RNA 2 with A42U, U43A, A44U, U45C, C49G, U50C, A51U
B12: target 1 insC 3' of 20,insU 3' of 12 (mixed)
RNA 1: B1 RNA 1
RNA 2: B3 RNA 2 with U33C, A34U, A44U, U45A, A46U
B13: target 1 C2A,U10G (mixed)
RNA 1: B1 RNA 1
RNA 2: B8 RNA 2 with A41U, U42G, A44U, C50A
B14: target 1 A1G,A20C (mixed)
RNA 1: B1 RNA 1
RNA 2: B8 RNA 2 with A32C, A41U, A44U, A51G
B15: target 1 G13C,A14U (mixed)
RNA 1: B1 RNA 1
RNA 2: B8 RNA 2 with A38U, G39C, A41U, A44U
B16: target 1 G5U,U11C (mixed)
RNA 1: B1 RNA 1
RNA 2: B8 RNA 2 with A41C, A44U, G47U
B17: target 1 insA 3' of 11,insC 3' of 1 (mixed)
RNA 1: B1 RNA 1
RNA 2: B2 RNA 2 with A51C, C52A, A53C
B18: target 1 U3G,C6A (mixed)
RNA 1: B1 RNA 1
RNA 2: B8 RNA 2 with A41U, A44U, C46A, U49G
B19: target 1 C2U,G15C (mixed)
RNA 1: B1 RNA 1
RNA 2: B8 RNA 2 with G37C, A41U, A44U, C50U
B20: target 1 C2G,U3A (mixed)
RNA 1: B1 RNA 1
RNA 2: B8 RNA 2 with A41U, A44U, U49A, C50G
B21: target 1 insA 3' of 15,insG 3' of 3 (mixed)
RNA 1: B1 RNA 1
RNA 2: B2 RNA 2 with G39A, U41G, A42U, A51G
B22: target 1 del6,del7 (mixed)
RNA 1: B1 RNA 1
RNA 2: GGGAAUGGAUCCACAUCUACGAAUUCGUACCAUAGAGAGGUUAUGCUCACCGAGAUCGGAAGAGCACACGU
B23: target 1 insG 3' of 6,insU 3' of 1 (mixed)
RNA 1: B1 RNA 1
RNA 2: B2 RNA 2 with A42U, U43A, A44U, U45C, C47G, A51C, C52A, A53U
B24: target 1 G13A,A20U (mixed)
RNA 1: B1 RNA 1
RNA 2: B8 RNA 2 with A32U, G39A, A41U, A44U
B25: target 1 insG 3' of 19,insG 3' of 2 (mixed)
RNA 1: B1 RNA 1
RNA 2: B3 RNA 2 with A34G, A46C, C48G, G49C, C50U, U51C, C52G
B26: target 1 A20C,C21A (mixed)
RNA 1: B1 RNA 1
RNA 2: B8 RNA 2 with C31A, A32C, A41U, A44U
B27: target 1 insA 3' of 12,insU 3' of 12 (mixed)
RNA 1: B1 RNA 1
RNA 2: B3 RNA 2 with A35G, G36A, A37G, G38A, A39G, G41A, A44U, U45A, A46U
B28: target 1 insG 3' of 16,insU 3' of 4 (mixed)
RNA 1: B1 RNA 1
RNA 2: B2 RNA 2 with A38G, G39A, U41G, A42U, A51U
B29: target 1 C7U,U8G (mixed)
RNA 1: B1 RNA 1
RNA 2: B8 RNA 2 with A41U, A44G, C45U
B30: target 1 insC 3' of 10,insA 3' of 4 (mixed)
RNA 1: B1 RNA 1
RNA 2: B2 RNA 2 with A42U, U43C, U50A, A51U
B31: target 1 G17U,A20C (mixed)
RNA 1: B1 RNA 1
RNA 2: B8 RNA 2 with A32C, G35U, A41U, A44U
B32: target 1 insA 3' of 22,insC 3' of 22 (mixed)
RNA 1: B1 RNA 1
RNA 2: B1 RNA 2 with U31A, A33C, U34A, A35U, G36A, A37G, G38A, C39G
B33: target 1 insU 3' of 17,insU 3' of 7 (mixed)
RNA 1: B1 RNA 1
RNA 2: B3 RNA 2 with A35G, G36U, A46C, C47U
B34: target 1 insC 3' of 15,insC 3' of 8 (mixed)
RNA 1: B1 RNA 1
RNA 2: B3 RNA 2 with A35G, G36A, A37G, G38C, A46C

target: T1, EsCas13d, nuclease-dead; assay: crRNA (strand 1, pre-loaded); Mg2+; 40 mM Tris-HCl pH 7.5, 150 mM NaCl, 6 mM MgCl2, 1 mM DTT, 0.1% Tween-20, 0.2 mg/ml BSA; 25 C; 10 min per concentration, then washed; settings: tags: His6-TwinStrep-SUMO cleaved; N-terminal SNAP kept (SNAP-Surface 488); label: 3' end held by stalled T7 RNA polymerase

Row | Binder | Kd
1 | B1 | 0.067 ± 0.014 µM
2 | B2 | 0.014 ± 0.0007 µM
3 | B3 | 0.0311 ± 0.0027 µM
4 | B4 | 0.0208 ± 0.001 µM
5 | B5 | 0.0091 ± 0.0005 µM
6 | B6 | 0.016 ± 0.0012 µM
7 | B7 | 0.042 ± 0.007 µM
8 | B8 | 0.0268 ± 0.0019 µM
9 | B9 | 0.0142 ± 0.0007 µM
10 | B10 | 0.00944 ± 0.00034 µM
11 | B11 | 0.0171 ± 0.0013 µM
12 | B12 | 0.00619 ± 0.00032 µM
13 | B13 | 0.028 ± 0.0019 µM
14 | B14 | 0.041 ± 0.004 µM
15 | B15 | 0.0131 ± 0.0011 µM
16 | B16 | 0.061 ± 0.008 µM
17 | B17 | 0.0158 ± 0.0011 µM

Row | Binder | Kd
18 | B18 | 0.0063 ± 0.0004 µM
19 | B19 | 0.049 ± 0.005 µM
20 | B20 | 0.0134 ± 0.0013 µM
21 | B21 | 0.0051 ± 0.0004 µM
22 | B22 | 0.0114 ± 0.0007 µM
23 | B23 | 0.0178 ± 0.0023 µM
24 | B24 | 0.0145 ± 0.0022 µM
25 | B25 | 0.099 ± 0.026 µM
26 | B26 | 0.00563 ± 0.00034 µM
27 | B27 | 0.058 ± 0.016 µM
28 | B28 | 0.0139 ± 0.0006 µM
29 | B29 | 0.0142 ± 0.001 µM
30 | B30 | 0.0155 ± 0.0026 µM
31 | B31 | 0.088 ± 0.021 µM
32 | B32 | 0.00892 ± 0.00033 µM
33 | B33 | 0.0254 ± 0.001 µM
34 | B34 | 0.0262 ± 0.0028 µM
